Laboratory results: patent US20130095503A1, “SERUM SPLA2-IIA AS DIAGNOSIS MARKER FOR PROSTATE AND LUNG CANCER” (UNIVERSITY OF CINCINNATI, priority 2010, published 2013)

How the values were obtained:
HER3 = biological target: T1, HER3 (Homo sapiens, UniProt P21860); test: Western blot of P-HER3 in lung cancer cells treated with sPLA2-IIA; type: cell-based; details: A549 and H1975 cells (FIG. 22B: H1975), 0-0.5 μg/mL, 2 H, 10% FBS
T1 construct: endogenous in cells; host or cells: H1975 lung cancer cells
Method: (§1) A549 and H1975 lung cancer cells were starved in 1% stripped medium for 24 H. The cells were then treated with recombinant human sPLA2-IIA (0.5 μg/mL) with various concentrations (0, 0.125, 0.25, or 0.5 μg/mL) of sPLA2-IIA for 2 H in medium containing 10% fetal bovine serum (hereinafter “FBS”). Cell extracts were prepared and subjected to western blot analysis for HER2, P-HER2, HER3, and P-HER3. Western blot analysis was conducted as previously described.

HER2 [1] = biological target: T2, HER2 (Homo sapiens, UniProt P04626); test: Western blot of P-HER2 in lung cancer cells treated with sPLA2-IIA; type: cell-based; parameters: endogenous in cells; host or cells: A549 lung cancer cells; details: A549 and H1975 cells (FIG. 22A: A549), 0-0.5 μg/mL, 2 H, 10% FBS
Method: as §1

HER2 [2] = biological target: T2, HER2; test: Western blot of P-HER2 in LNCaP-AI prostate cancer cells treated with sPLA2-IIA; type: cell-based; parameters: endogenous in cells; details: 0.5 μg/mL for 0-180 min or 0-0.5 μg/mL for 2 H, FIG. 23
Method: Additionally, LNCaP-AI prostate cancer cells were starved in 1% stripped medium for 24 H. The cells were then treated with recombinant human sPLA2-IIA (0.5 μg/mL) for 30 to 180 minutes (0, 30, 60, 120, or 180 min) or with various concentrations of sPLA2-IIA (0, 0.125, 0.25, or 0.5 μg/mL) for 2 H in medium containing 10% FBS. Cell extracts were prepared and subjected to western blot analysis for P-HER2 and HER2. Western blot analysis was conducted as previously described.

LNCaP-AI cells = test: MTT growth assay in LNCaP-AI cells; type: cell-based, human; details: 10% stripped medium, about 4 days, FIG. 11
Method: The role of sPLA2-IIA in the growth of prostate cancer cells was studied by MTT assay. Specifically, LNCaP-AI cells were cultured in 10% stripped medium in the presence of EGF (ng/mL) or sPLA2-IIA (ng/mL) for about 4 days, followed by performance of an MTT assay. The role of sPLA2-IIA on prostate cancer cell growth was also studied by blocking the activity of sPLA2-IIA in LNCaP-AI cells. The activity of sPLA2-IIA was blocked in LNCaP-AI cells by administering the peptide inhibitor cFLYSYR (μM) or c(NapA)R (μM) for about 4 days, followed by performance of an MTT assay.

T1 sequence (P21860 20-1342): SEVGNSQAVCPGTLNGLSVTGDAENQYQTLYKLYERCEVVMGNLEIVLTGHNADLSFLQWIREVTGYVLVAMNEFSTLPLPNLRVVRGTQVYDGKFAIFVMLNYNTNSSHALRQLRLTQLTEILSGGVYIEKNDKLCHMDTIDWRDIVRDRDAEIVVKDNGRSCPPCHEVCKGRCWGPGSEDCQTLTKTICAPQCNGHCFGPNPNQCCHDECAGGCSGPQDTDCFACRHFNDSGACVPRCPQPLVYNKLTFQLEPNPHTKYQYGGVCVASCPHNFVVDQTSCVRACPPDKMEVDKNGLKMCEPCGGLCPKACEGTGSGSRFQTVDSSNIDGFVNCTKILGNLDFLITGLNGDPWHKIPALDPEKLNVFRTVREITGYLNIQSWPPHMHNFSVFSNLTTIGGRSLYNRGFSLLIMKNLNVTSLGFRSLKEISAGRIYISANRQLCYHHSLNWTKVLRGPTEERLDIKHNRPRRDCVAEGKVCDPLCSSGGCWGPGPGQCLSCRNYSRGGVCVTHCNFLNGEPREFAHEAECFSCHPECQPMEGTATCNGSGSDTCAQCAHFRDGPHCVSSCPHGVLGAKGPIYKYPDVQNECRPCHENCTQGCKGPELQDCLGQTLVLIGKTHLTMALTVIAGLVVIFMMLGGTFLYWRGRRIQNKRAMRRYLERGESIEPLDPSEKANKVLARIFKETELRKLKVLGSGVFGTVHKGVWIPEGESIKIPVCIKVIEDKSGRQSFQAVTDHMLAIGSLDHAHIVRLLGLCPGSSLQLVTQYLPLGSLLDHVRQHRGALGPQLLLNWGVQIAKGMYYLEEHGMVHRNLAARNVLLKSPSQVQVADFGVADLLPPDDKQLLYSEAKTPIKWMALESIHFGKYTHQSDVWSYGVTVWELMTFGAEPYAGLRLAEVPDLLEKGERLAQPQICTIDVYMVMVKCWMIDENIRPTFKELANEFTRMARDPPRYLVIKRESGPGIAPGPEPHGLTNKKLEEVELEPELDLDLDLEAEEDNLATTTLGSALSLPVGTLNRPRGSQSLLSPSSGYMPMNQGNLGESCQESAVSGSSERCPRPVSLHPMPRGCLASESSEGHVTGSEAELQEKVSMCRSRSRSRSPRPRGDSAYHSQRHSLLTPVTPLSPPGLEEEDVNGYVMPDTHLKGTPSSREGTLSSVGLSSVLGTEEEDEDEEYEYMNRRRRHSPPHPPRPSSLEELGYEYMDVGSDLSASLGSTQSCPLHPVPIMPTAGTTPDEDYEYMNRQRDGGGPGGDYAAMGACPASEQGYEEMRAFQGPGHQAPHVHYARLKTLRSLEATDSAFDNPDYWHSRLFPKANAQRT

B1: recombinant human sPLA2-IIA: recombinant human secretory phospholipase A2-IIA (protein, UniProt P14555 21-144, looked up)
Phospholipase A2, membrane …: NLVNFHRMIKLTTGKEAALSYGFYGCHCGVGGRGSPKDATDRCCVTHDCCYKRLEKRGCGTKFLSYKFSNSGSRITCAKQDSCRSQLCECDKAAATCFARNKTTYNKKYQYYSNKHCRGSTPRC
In the case of B1, the “phosphorylation of HER3” value (HER3) is reported as “induced phosphorylation”, the “phosphorylation of HER2” value (HER2 [1]) is reported as “induced phosphorylation” and the “phosphorylation of HER2” value (HER2 [2]) is reported as “induced phosphorylation”. For the same molecule, the “prostate cancer cell growth (MTT)” value (LNCaP-AI cells) was “stimulates prostate cancer cell growth”.
